# Measured values published in IntAct's records for PubMed 18202720.
# B1: Type-1 angiotensin II receptor A (Rattus norvegicus (Rat)), P25095 (parent)
# chain: MALNSSAEDGIKRIQDDCPKAGRHSYIFVMIPTLYSIIFVVGIFGNSLVVIVIYFYMKLKTVASVFLLNLALADLCFLLTLPLWAVYTAMEYRWPFGNHLCKIASASVSFNLYASVFLLTCLSIDRYLAIVHPMKSRLRRTMLVAKVTCIIIWLMAGLASLPAVIHRNVYFIENTNITVCAFHYESRNSTLPIGLGLTKNILGFLFPFLIILTSYTLIWKALKKAYEIQKNKPRNDDIFRIIMAIVLFFFFSWVPHQIFTFLDVLIQLGVIHDCKISDIVDTAMPITICIAYFNNCLNPLFYGFLGKKFKKYFLQLLKYIPPKAKSHSSLSTKMSTLSYRPSDNMSSSAKKPASCFEVE
# Variants of: B1
# Details: with angt_human AGT
row,Variant,effect of a mutation on the interaction
1,MALNSSAEDGIKRIQDDCPKAGRHSYIFVMIPTLYSIIFVVGIFGNSLVVIVIYFYMKLKTVASVFLLNLALADLCFLLTLPLWAVYTAMEYRWPFGNHLCKIASASVSFNLYASVFLLTCLSIDRYLAIVHPMKSRLRRTMLVAKVTCIIIWLMAGLASLPAVIHRNVYFIENTNITVCAFHYESRNSTLPIGLGLTKNILGFLFPFLIILTSYTLIWKALKKAYEIQKNKPRNDDIFRIIMAIVLFFFFSWVPHQIFTFLDVLIQLGVIHDCKISDIVDTAMPIAICIAYFNNCLNPLFYGFLGKKFKKYFLQLLKYIPPKAKSHSSLSTKMSTLSYRPSDNMSSSAKKPASCFEVE [T287A],decreasing interaction

# Variants of: B1
# Details: with angt_human AGT
# Remark: another data set of the same source
row,Variant,effect of a mutation on the interaction
1,MALNSSAEDGIKRIQDDCPKAGRHSYIFVMIPTLYSIIFVVGIFGNSLVVIVIYFYMKLKTVASVFLLNLALADLCFLLTLPLWAVYTAMEYRWPFGNHLCKIASASVSFNLYASVFLLTCLSIDRYLAIVHPMKSRLRRTMLVAKVTCIIIWLMAGLASLPAVIHRNVYFIENTNITVCAFHYESRNSTLPIGLGLTKNILGFLFPFLIILTSYTLIWKALKKAYEIQKNKPRNDDIFRIIMAIVLFFFFSWVPHQIFTFLDVLIQLGVIHDCKISDIVDTAMPITICIAAFNNCLNPLFYGFLGKKFKKYFLQLLKYIPPKAKSHSSLSTKMSTLSYRPSDNMSSSAKKPASCFEVE [Y292A],decreasing interaction

# Variants of: B1
# Details: with angt_human AGT
# Remark: another data set of the same source
row,Variant,effect of a mutation on the interaction
1,MALNSSAEDGIKRIQDDCPKAGRHSYIFVMIPTLYSIIFVVGIFGNSLVVIVIYFYMKLKTVASVFLLNLALADLCFLLTLPLWAVYTAMEYRWPFGNHLCKIASASVSFNLYASVFLLTCLSIDRYLAIVHPMKSRLRRTMLVAKVTCIIIWLMAGLASLPAVIHRNVYFIENTNITVCAFHYESRNSTLPIGLGLTKNILGFLFPFLIILTSYTLIWKALKKAYEIQKNKPRNDDIFRIIMAIVLFFFFSWVPHAIFTFLDVLIQLGVIHDCKISDIVDTAMPITICIAYFNNCLNPLFYGFLGKKFKKYFLQLLKYIPPKAKSHSSLSTKMSTLSYRPSDNMSSSAKKPASCFEVE [Q257A],decreasing interaction
